From the DeepSol protein solubility set

Assay: soluble on expression in E. coli; label from the status in PepcDB or PDB records

Soluble on expression in E. coli, soluble:
MAIELYSQREIEKIRKASQIVAEVLHIVAENVKPGVSTWDLEMIARKETEKRGAKPAFLGYKPPFSDVRYPAALCISINDEVVHGLPKKEKVIKEGDVVSIDFGAIYDGYAGDSAITVIAGKGSPEAQKLLEATKEALYNAIEKALPGKKVGDITKAIHETAEKYGFKTILRYGGHGVGRKVHQEPFVPNNVKDIGKKNPRLRQGMVIAIEPMLSIGTEETVEDGDGWTVKTKDGSLAAHFEHTVAITKKGPVILTEL
MGSSHHHHHHSSGRENLYFQGHMSHRDTLFSAPIARLGDWTFDERVAEVFPDMIQRSVPGYSNIISMIGMLAERFVQPGTQVYDLGCSLGAATLSVRRNIHHDNCKIIAIDNSPAMIERCRRHIDAYKAPTPVDVIEGDIRDIAIENASMVVLNFTLQFLEPSERQALLDKIYQGLNPGGALVLSEKFSFEDAKVGELLFNMHHDFKRANGYSELEISQKRSMLENVMLTDSVETHKARLHNAGFEHSELWFQCFNFGSLVALKAEDAA
MTSLEKARELLREFPVVDGHNDLPWALREQVRYDLDARDIAADQSAHLHTDLARLRSGGVGAQYWSVYVRSDLPGAVTATLEQIDCVRRLIDRHPGELRAALTAADMEAARAEGRIASLMGAEGGHSIDNSLATLRALYALGVRYMTLTHNDNNAWADSATDEPGVGGLSAFGREVVREMNREGMLVDLSHVAATTMRDALDTSTAPVIFSHSSSRAVCDHPRNIPDDVLERLSANGGMAMVTFVPKFVLQAAVDWTAEADDNMRAHGFHHLDSSPEAMKVHAAFEERVPRPVATVSTVADHLDHMREVAGVDHLGIGGDYDGTPFTPDGLGDVSGYPNLIAELLDRGWSQSDLAKLTWKNAVRVLDAAEDVSRGLRAARGPSNATIEQLDGTAAEQPEG
MNTRNFSLPQLQNLPIEEARIVADALAVHATSRQIDSAASKLAALAEAGLKGDRQAYAAYQQLLYVLSLSDDVATAQTRRWLARAIYRVEERFMPAADLSRALSEEDFQKRLEQEIAAQSRERHPMSQYVFSGSASRAQLQVFLRHQWFRTFRLYRDAADLLVNLTDVDEAAALARYLYGELGEEDEKGSHPRLLAKLLEAIGLEADFQAVSTMPEEIAYLNNRARAFRHAEVGWGLAVFYITELVVPGNHEKLYRALLQAGLSEDQAEYYKVHISLVPPRAKREWQLIARRIPDVQFQNAFLTSLSQHFRVERAYYDAIWEEMQSVK
MAHHHHHHMPTEAHGWAALSAKSKLEPFAFQRRDVGPDDVVIAIAYCGVCHSDVHQARDEWDGSTFPMVPGHEIVGHVTKVGSEVTKYKAGDRVGVGCMVDSCMKCRQCERGLEQYCVNGASFTYNSTQQDKKTPTFGGYSDHVVVREHFVVSIPDNLDLCAAAPLLCAGVTTFSPLRYWGVKKGTRVGVVGLGGLGHMAVKLANAMGAEVTVFTRSSNKVEEAENLGAHHVVNTNNEQEMNSIQGTLDVIVDTVGMSHDLRPYMMTLDIDGKLALVGMPEHAHPPLDPRRIIASRQCVGGSNIAGMPETQELLNFCGEHNITATVEKIGIEYINEAYERILASDVRYRFVIDMASLKKE
MNTQKPFENHLKSVDDLKTTYEEYRAGFIAFALEKNKRSTPYIERARALKVAASVAKTPKDLLYLEDIQDALLYASGISDKAKKFLTEDDKKESINNLIENFLEPAGEEFIDELIFRYLLFQGDSLGGTMRNIAGALAQQKLTRAIISALDIANIPYKWLDSRDKKYTNWMDKPEDDYELETFAKGISWTINGKHRTLMYNITVSLVKKNVDICLFNCEPEIYTPQKVHQQPEKYLLLGELKGGIDPAGADEHWKTANTALTRIRNKFSEKGLSPKTIFIGAAIEHSMAEEIWDQLQSGSLTNSANLTKTEQVGSLCRWIINI
SNAMAWVVNKQSTQEELANRFRALVEANEILQIPGAHDAMAALVARNTGFLALYLSGAAYTASKGLPDLGIVTSTEVAERARDLVRATDLPVLVDIDTGFGGVLNVARTAVEMVEAKVAAVQIEDQQLPKKCGHLNGKKLVTTEELVQKIKAIKEVAPSLYIVARTDARGVEGLDEAIERANAYVKAGADAIFPEALQSEEEFRLFNSKVNAPLLANMTEFGKTPYYSAEEFANMGFQMVIYPVTSLRVAAKAYENVFTLIKETGSQKDALSNMQTRSELYETISYHDFEELDTGIAKTVLSEDQ
MTSTFDRVATIIAETCDIPRETITPESHAIDDLGIDSLDFLDIAFAIDKAFGIKLPLEKWTQEVNDGKATTEQYFVLKNLAARIDELVAAKGALEHHHHHH
MSLSMLEKVSFSTTPDFELGFEHCPRQTDYLIAQPKERAKGLVVYIPGFGDDAGEYREKFCLKVAEKYDLAAMTVDYHCFYSRPEVHSATAYEAEDVALIEKLFLAHNLPFAGDTIEEGIEILNKHLASHNQKASITATLIPGKDEYQNAGVLQALDIINAVGHAIEKYSIPAENVILIGSSYGGYIANLATKFAPKTFRAVFDNSSWAQPHFTYIVGREYGYPELIHKTHSHIATKLFLRTAWTLKKGLPNTFDGKRFYVRTFSEDQLGQFSSYEPETYYYFIHAEKDKLALTEHKIQMATYMIQREMNVHMEVMEAADIDGQYIKTIEHGMNLSMLTFFDKAYAHINDHTISLENDFMNGSLVGYDSGDHRYEFDFSTFPVTGRVTQKAVAEGHHHHHH
MSLKFVGIVGSNAEQSYNRMLLEFIRKNFKTKFELEVLEIDDIPMFNQDQNWEESFQLRLLNNKITRADGVIIATPEHNHTITAALKSVLEWLSFAVHPLENKPVMIVGASYYDQGTSRAQIHLRKILDAPGVNAYTLPGNEFLLGKAKEAFDDNGNIINPGTVQFLETCLDNFIKYVGVVSSLRKPKAIESEDLYCQGQIDTTITGIDPDDPDWLDKAAEKVNAVEGDAYVKLDNGLLTVNQLNMFLNAMPFELTYADDNNQFLYYNNNHPDPDTMLGKRVREQVGNRMATVHGSLPPARMKNVEWVIGTLRNGNQEYVRTVVPGTPPEVINTHNYQAMYYPDGSYAGINEIIFNFKPWLDWYLQTTGQRLVGGTTAAPGASAVDATSSASTSTGDAPVDQATDATSGASEHEGHHHHHH
ENPRNVGSLDKTSKNVGTGLVGAPACGDVMKLQIQVDEKGKIVDARFKTFGCGSAIASSSLATEWVKGKTVEEALTIKNTDIAKELCLPPVKLHCSMLAEDAIKAALADYKLKQESK

Soluble on expression in E. coli, not soluble:
MLLPKFLLLTAFLEFASAICADSNDQEIKGFCFKFVTQQLTFTDARTWCHLKNPVGPSYLAYVPSQDTSTYLAFYARSAFGADAEVFWIGLSRNASSGSLSWDNGLPVAYTNFGTNVGKNYFTESISNTKWDTLGDGDLNFFVCSYAPIVNSTTMTSITGTTKRMTTTTIEKLNCKPGDHQIILFAYSNDLAPSVVTDALYYSSLSSQSVTYAVSRFDLRQPEDIQYFSDYSLFSSYVSSHLPDYTLGFEEATTGSNVFEVINKFYDNTQATCGSNLIILSKRYPNTADVSNIVLKVRKSQGMVNFLASHAPSGGTVSQGLYDLCSLTNGIYSIGRDSSFSNMIESMPIRYRYAIYADNPKVSGQGSQTLASMSVPADGTYYLSMMLQNHTPVNTTQSVLLHWYSPYSRYSSTASVHGLSFETNNNGANSEILDAAIYNVTLDFVYFTSETMQIRFYGTSTDHWLPYAD
MGSDKIHHHHHHMNLAYLILAHNNPNHLQKLISSLDTSDVHFFVHIDGKSNILPFQANLISNKVTFVQERRNIFWGEFSIVQATIDLMKTALNKQDFDYLILISGSDYPLKNAQYIKDFFSKNKGSEFINLVELPNEQASKNLNRLYQYRISFSSKNIVLRAFRRVINCIINDLFHWQRNYRKSLGELKPYAGSQWWALSGDACNYILNFIAKNPEILKFFQTALIPDESFFHTILANSDFLTKVKPNLTFTKWNDTAHPEYITVEIVRDFKGMDAIYNHSIGGYGEVLFARKFAPDSDEVIKFINDNIA
MVINIRRSRPDEGDKLTAIWCRSVDATHDFLTKAYRKELEEMVRAFLPEAPLWVAVSTEDQPIAFMLLTGDHMDALFVDPDVRGCGVGKLLIEHALSLTPKLTTNVNEQNEQAVGFYQKMGFRVTGRSETDDLGQPYPLLNLMYEQQAEADYD
ATPSRKQRVSTLWISDVHLGTRDCQAEHLSAFLKRYQADKVYLVGDIIDGWKLRGGMYWPQAHTNVIRRLLTMSKRGTEVIYVTGNHDEFLRRYSKLVLGNIQLVDEAEHVTAEGRRLLVIHGDQFDVITRYHRWLAFLGDSAYEFTLTLNRWLNHWRAKYGYGYWSLSAYLKHKVKSAVNFISDFEEAIAHECVKRGLDGVVCGHIHHAEIRQVGGVEYLNCGDWVESCTALIEHLDGTIELFRLADAHLKASQPV
MAHHHHHHSLKCILLNQAEELPIEFLPKDGVYGKGKLFDSRNMEIENFTESDILQDARRAAEAHRRARYRVQSIVRPGITLLEIVRSIEDSTRTLLKGERNNGIGFPAGMSMNSCAAHYTVNPGEQDIVLKEDDVLKIDFGTHSDGRIMDSAFTVAFKENLEPLLVAAREGTETGIKSLGVDVRVCDIGRDINEVISSYEVEIGGRMWPIRPISDLHGHSISQFRIHGGISIPAVNNRDTTRIKGDSFYAVETFATTGKGSIDDRPPCSHFVLNTYKSRKLFNKDLIKVYEFVKDSLGTLPFSPRHLDYYGLVKGGSLKSVNLLTMMGLLTPYPPLNDIDGCKVAQFEHTVYLSEHGKEVLTRGDDY
MGSDKIHHHHHHMNEAQQLQQMQPLLYKQLQKSFEHGRLAHAYLFEGDTGTGKQEFGLWMAKHVFCTNLVNQQPCNECHNCVRINENEHPDVLRIAPDGQTIKVNQIRELKAEFSKSGVETAKKVFLIQEADKMSTGAANSLLKFLEEPEGQILAILETTSLSRILPTIQSRCQTLHFQPLVKKTLIDRLIKQGIGEKTATLLAELTNSFEKAVEISQDEWFNEAREIILQWFNYLKSNDLQAFIYVQKKMVKVFKEKEQQALSFDLLMVYYRQLLEESVATQQAKKVTEEQAERLALILKARQKWTANVSWQNVCEQLVIQMIHPKS
MAHHHHHHMWSGLKLERLLYTFPETTTPTGWSQSDPLLSSPLGEADANEGDSSAVFGEDVNVEHRHFNNGERRRKLALRPFTVPASAMAEEGGEEGSHVHLGFSFPGEGKFDEEPEAVLWCPQGNCQWLNEESDCSQRSAMSCPARPTKTTIQLGDPGAPIKKNRERKYICNDADENSNSRVGPALYHQLEFFQESNSVSFPCESSALSHITPLDETGESVDLANHMSHLTVAVSPIQKRLLFTGVLDDAVDAPSGRDVGDDKGVGSGLQSLRREKRFLEEMDTNRDAANSNSMACTMPREPHRKFRRIDAGENDRKSLDNHFHSRR
MTLPDSKKDQTARHVAILQESYRHYTGRYLFDPKLGASEAIVWLEQAPFALVSHGTQPDPIFNYGNQTALQLFGMTWDEFTRMPSRLSAEPVDRAERTRLLDHVSRDGYIDDYTGVRIAADGRRFLIRHATVWNLLDESGRFYGQAAMIPEWEVLQPVFTAD
MGHHHHHHSHMAFCAILLVPSLCRMPSLPTSPWAFPVHWAGFMFKPLDWQGNDFFPPQDEVLAPLSWHKNTFKA
MGHHHHHHSHMPKVKRSRKAPQDGWELIEPTLDQLDQKMREAETEPHEGKRKVESLWPIFRIHHQKTRYIFDLFYKRKAYSRELLDICYKEGLADKNLLAKWKKQGIGNLCCLRCIQTRDTNFGTNCICRVPKSKLEVGRIIECTHCGCRGCSG
MAHHHHHHMGSKYGSGNYQLFRALYKDLCDEIRREYYTKPPPPPPATRTTGASPSLVAAEAALEVHGSAGSGANDTSSGAAKQRSMAGGAGATSSSTQGGGMTAGSEREGSTVEAAHAARETAATPPSQPEETYGDGSWSVQHRPEDNVAVFHRGAVKRGRLAAVHAWARIELKDPPRLNAVLTFADWIPIEVCVERNGIVIHFSMAANEGGMHMRNVRVYEPKSAEERAALLDPSDDGEYARKNFYYDGPCLWHLELDMLNELYDVMQDHGVTLDWIRWAASWVFYLEHVNYVRWNLGMLEELIPSSLRGPEEDFLLPVEKALLAEPVEDWLRAHSI
